The values that follow come from patent US7132278.

Where a chain is given by its changes, count along the chain named. In names and notes the source's numbering stands.

The data set has as its target T1, AMARA peptide, synthetic substrate NH2-AMARAASAAALARRR-CO2H.
T1 chain: AMARAASAAALARRR

B1: human PASK enzyme, wildtype, pre-phosphorylated in the presence of ATP (protein)
chain: MEDGGLTAFEEDQRCLSQSLPLPVSAEGPAAQTTAEPSRSFSSAHRHLSRRNGLSRLCQSRTALSEDRWSSYCLSSLAAQNICTSKLHCPAAPEHTDPSEPRGSVSCCSLLRGLSSGWSSPLLPAPVCNPNKAIFTVDAKTTEILVANDKACGLLGYSSQDLIGQKLTQFFLRSDSDVVEALSEEHMEADGHAAVVFGTVVDIISRSGEKIPVSVWMKRMRQERRLCCVVVLEPVERVSTWVAFQSDGTVTSCDSLFAHLHGYVSGEDVAGQHITDLIPSVQLPPSGQHIPKNLKIQRSVGRARDGTTFPLSLKLKSQPSSEEATTGEAAPVSGYRASVWVFCTISGLITLLPDGTIHGINHSFALTLFGYGKTELLGKNITFLIPGFYSYMDLAYNSSLQLPDLASCLDVGNESGCGERTLDPWQGQDPAEGGQDPRINVVLAGGHVVPRDEIRKLMESQDIFTGTQTELIAGGQLLSCLSPQPAPGVDNVPEGSLPVHGEQALPKDQQITALGREEPVAIESPGQDLLGESRSEPVDVKPFASCEDSEAPVPAEDGGSDAGMCGLCQKAQLERMGVSGPSGSDLWAGAAVAKPQAKGQLAGGSLLMHCPCYGSEWGLWWRSQDLAPSPSGMAGLSFGTPTLDEPWLGVENDREELQTCLIKEQLSQLSLAGALDVPHAELVPTECQAVTAPVSSCDLGGRDLCGGCTGSSSACYALATDLPGGLEAVEAQEVDVNSFSWNLKELFFSDQTDQTSSNCSCATSELRETPSSLAVGSDPDVGSLQEQGSCVLDDRELLLLTGTCVDLGQGRRFRESCVGHDPTEPLEVCLVSSEHYAASDRESPGHVPSTLDAGPEDTCPSAEEPRLNVQVTSTPVIVMRGAAGLQREIQEGAYSGSCHHRDGLRLSIQFEVRRVELQGPTPLFCCWLVKDLLHSQRDSAARTRLFLASLPGSTHSTAAELTGPSLVEVLRARPWFEEPPKAVELEGLAACEGEYSQKYSTMSPLGSGAFGFVWTAVDKEKNKEVVVKFIKKEKVLEDCWIEDPKLGKVTLEIAILSRVEHANIIKVLDIFENQGFFQLVMEKHGSGLDLFAFIDRHPRLDEPLASYIFRQLVSAVGYLRLKDIIHRDIKDENIVIAEDFTIKLIDFGSAAYLERGKLFYTFCGTIEYCAPEVLMGNPYRGPELEMWSLGVTLYTLVFEENPFCELEETVEAAIHPPYLVSKELMSLVSGLLQPVPERRTTLEKLVTDPWVTQPVNLADYTWEEVCRVNKPESGVLSAASLEMGNRSLSDVAQAQELCGGPVPGEAPNGQGCLHPGDPRLLTS
As to B1, the Km (mM), pre-phosphorylated is 0.2 mM and the “fold lower Km for substrate than the unmodified enzyme” value was 6.5-fold lower Km for substrate than the unmodified enzyme.

B2: human PASK S1149A, pre-phosphorylated (protein)
chain: B1 chain with S1149A
B2: the Km (mM), pre-phosphorylated was found to be 0.6 mM.

B3: human PASK S1273-1289A, pre-phosphorylated (protein)
chain: B1 chain with S1273A, S1277A, S1280A, S1287A, S1289A
As to B3, the Km (mM), pre-phosphorylated worked out at 0.2 mM.

B4: human PASK enzyme, wildtype, untreated (unmodified, as purified from baculovirus-infected Sf-9 cells) (protein)
chain: B1 chain
With B4, the Km (mM), untreated was 1.3 mM.

B5: human PASK S1273,77,80A, pre-phosphorylated (protein)
chain: B1 chain with S1273A, S1277A, S1280A
Turning to B5, the Km (mM), pre-phosphorylated turned out to be 0.3 mM.

B6: human PASK S1287,89A, pre-phosphorylated (protein)
chain: B1 chain with S1287A, S1289A
As to B6, the Km (mM), pre-phosphorylated stood at 0.2 mM.

B7: PASK ΔN, truncated variant of human PASK lacking both PAS domains (protein)
chain: SLPGSTHSTAAELTGPSLVEVLRARPWFEEPPKAVELEGLAACEGEYSQKYSTMSPLGSGAFGFVWTAVDKEKNKEVVVKFIKKEKVLEDCWIEDPKLGKVTLEIAILSRVEHANIIKVLDIFENQGFFQLVMEKHGSGLDLFAFIDRHPRLDEPLASYIFRQLVSAVGYLRLKDIIHRDIKDENIVIAEDFTIKLIDFGSAAYLERGKLFYTFCGTIEYCAPEVLMGNPYRGPELEMWSLGVTLYTLVFEENPFCELEETVEAAIHPPYLVSKELMSLVSGLLQPVPERRTTLEKLVTDPWVTQPVNLADYTWEEVCRVNKPESGVLSAASLEMGNRSLSDVAQAQELCGGPVPGEAPNGQGCLHPGDPRLLTS
In the case of B7, the Km (mM), pre-phosphorylated stood at 0.3 mM.
